Tests used:
[1] = test system: differentiated PC12 cells; assay: NGF withdrawal-induced apoptosis of differentiated PC12 cells; type: cell-based; settings: pCDNA3-Flag-JIP-1 (residues 127-281) transfection; 17 hours following NGF withdrawal; FIG. 5
Excerpt: The effect of JIP-1 on this biological response was investigated to determine whether JIP-1 inhibits the biological effects of the JNK signaling pathway. NGF withdrawal-induced apoptosis of differentiated PC12 cells was examined following transfection with the expression vectors pCDNA3 (control) and pCDNA3-Flag-JIP-1 (containing residues 127-281 of JIP-1) using methods described previously. Xia et al., Science, 270:1326 (1995). The percentage of apoptotic cells in the total transfected cell population was blind-scored and quantitated. This assay scores adherent cells with an apoptotic morphology at 17 hours following NGF withdrawal. Cells that have completed apoptosis are nonadherent and are not scored. Thus, while the cumulative extent of apoptosis is large (100%), lower numbers of apoptotic cells are detected at a single time point.

[2] = test system: ATF2 transcriptional activity; assay: GAL4 luciferase reporter assay in CHO cells: GAL4-ATF2; type: cell-based, Chinese hamster; settings: GAL4-ATF2 reporter, CHO cells, FIG. 4C
Protocol: In these experiments, CHO cells were cotransfected with constructs encoding the transcription factors and JIP-1 using previously described methods. Dérijard et al., supra; Sluss et al., supra; Gupta et al., supra. A luciferase reporter plasmid was used to monitor the expression of the transcription factors. Transfection efficiency was determined using a β-galactosidase expression vector. Constructs used in these experiments included GAL4 fusions with the c-myc, Sp1 and VP16 activation domains (described in Whitmarsh et al., Science, 269:403 (1995); Davis, Science, 269:403 (1995); Gille et al., Curr. Biol., 5:1191 (1995)). Other constructs used were GAL4-c-Jun, in which GAL4 is fused to c-Jun; GAL4-c-Jun (S63A/S73A), in which GAL4 is fused to a mutant c-Jun in which the serines at positions 63 and 73 have been changed to alanines; GAL4-ATF2, in which GAL4 is fused to wild type ATF2 (ATF2(Thr-69, 71)); GAL4-ATF2 (T69A/T71A) (ATF2(Ala-69/71)), in which GAL4 has been fused to a mutant ATF2 in which the […] at positions 69 and 71 have been changed to alanines; GAL4-Elk-1, in which GAL4 has been fused to Elk-1; and GAL4-Elk-1 (S383A), in which GAL4 has been fused to a mutant Elk-1 in which the serine at position 383 has been changed to an alanine. Gupta et al., EMBO J, 15:2760-2770 (1996); Raingeaud et al., Mol. Cell. Biol., 16:1247-1255 (1996); Whitmarsh et al. Science, 269:403-407 (1995).
Insertional overlapping PCR, described in detail in Ho, supra, was used to construct expression vectors for the JNK binding domain (JBD; amino acid residues 127-281) of JIP-1 and for a mutant JIP-1 lacking the SH3 (amino acid residues 491-540) domain.
(§1) Transfected cells were activated by treatment with 10% (v/v) fetal calf serum, and luciferase and β-galactosidase activities were measured in cell lysates at 48 hours post-transfection. The data are presented as the ratio of luciferase activity (light units) to β-galactosidase activity (OD units) measured in the cell extracts (mean±SEM (n=3)), and are normalized to the luciferase activity detected in the absence of JBD (FIGS. 4A and 4B) or ATF2 (FIG. 4C).

E1a activation domain = assay: GAL4 luciferase reporter assay in CHO cells: E1a activation domain; type: cell-based, Chinese hamster; settings: 48 hours post-transfection, FIG. 4A
[3] = test system: primary mouse marrow cells (pre-B cells); assay: Bone marrow transformation assay: pre-B cell transformation by BCR-ABL retrovirus; type: cell-based; settings: bicistronic retrovirus, JBD in sense orientation (not anti-sense); day 10 post infection; FIG. 6
Protocol: To examine the effect of JIP-1 on BCR-ABL-mediated cellular transformation, bone marrow transformation assays were performed using recombinant retroviruses packaged with 293T cells as described in Sawyers et al., J. Exp. Med., 181:307 (1995). Bicistronic retroviruses expressing BCR-ABL, alone, or in combination with the Flag-tagged JBD (residues 127-281) of JIP-1, were prepared by subcloning p185BCR-ABL into the ClaI site of pSRαTK, downstream of the internal TK promoter, to create pSRαMSVTKp185. The JBD was subcloned into the upstream EcoRI site in the sense and antisense orientations.
The recombinant retroviruses were then used to infect primary mouse marrow cells, and the transformation of pre-B cells was monitored in culture. […] The data shown are derived from three independent experiments plated in triplicate. As expected, BCR-ABL caused pre-B cell transformation.

JNK = JNK activation by v-ABL or BCR-ABL in transfected 293 cells (immune complex kinase assay); type: cell-based; settings: co-expression in 293 cells; GST-Jun substrate
Excerpt: The BCR-ABL oncogene, which is associated with chronic myelogenous leukemia (CML), causes JNK activation in the absence of increased ERK activity. Raitano et al., Proc. Natl. Acad. Sci. USA, 92:11746 (1995). Oncogenic transformation by BCR-ABL may be mediated in part by the JNK signaling pathway. Since JIP-1 can inhibit JNK activity, the effect of JIP-1 expression on oncogenic transformation was examined. Plasmid vectors expressing v-ABL or BCR-ABL and Flag-tagged JBD (residues 127-281) of JIP-1 were used to transfect 293 cells. JNK activity was then measured in an immune complex kinase assay of lysates of the transfected 293 cells, using a polyclonal JNK antibody and GST-Jun as the substrate. […] JIP-1 can therefore inhibit BCR-ABL-mediated activation of JNK.

Sp1 activation domain = assay: GAL4 luciferase reporter assay in CHO cells: Sp1 activation domain; type: cell-based, Chinese hamster; settings: 48 hours post-transfection, FIG. 4A
Protocol: (§2) In these experiments, CHO cells were cotransfected with constructs encoding the transcription factors and JIP-1 using previously described methods. Dérijard et al., supra; Sluss et al., supra; Gupta et al., supra. A luciferase reporter plasmid was used to monitor the expression of the transcription factors. Transfection efficiency was determined using a β-galactosidase expression vector. Constructs used in these experiments included GAL4 fusions with the c-myc, Sp1 and VP16 activation domains (described in Whitmarsh et al., Science, 269:403 (1995); Davis, Science, 269:403 (1995); Gille et al., Curr. Biol., 5:1191 (1995)). […]
as §1

c-Myc activation domain = assay: GAL4 luciferase reporter assay in CHO cells: c-Myc activation domain; type: cell-based, Chinese hamster; settings: 48 hours post-transfection, FIG. 4A
Protocol: as §2, §1

VP16 activation domain = assay: GAL4 luciferase reporter assay in CHO cells: VP16 activation domain; type: cell-based, Chinese hamster; settings: 48 hours post-transfection, FIG. 4A
Protocol: as §2, §1

B1: JBD: JNK binding domain of JIP-1, residues 127-281, expressed (Flag-tagged) in cells (protein)
chain: PKAESNQDPAPRSQGQGPGTGSGDTYRPKRPTTLNLFPQVPRSQDTLNNNSLGKKHSWQDRVSRSSSPLKTGEQTPPHEHICLSDELPPQGSPVPTQDRGTSTDSPCRRSAATQMAPPSGPPATAPGGRGHSHRDRIHYQADVRLEATEEIYLTP
modifications: Flag tag
apoptosis following NGF-withdrawal [1]: markedly reduced
JNK-regulated gene expression [2]: inhibition
reporter gene expression mediated by E1a activation domain (E1a activation domain): did not inhibit
pre-B cell transformation by BCR-ABL [3]: marked inhibition
constitutive JNK activation caused by v-ABL and BCR-ABL (JNK): blocked
reporter gene expression mediated by Sp1 activation domain (Sp1 activation domain): did not inhibit
reporter gene expression mediated by c-Myc activation domain (c-Myc activation domain): did not inhibit
reporter gene expression mediated by VP16 activation domain (VP16 activation domain): did not inhibit

Source: US7838294B2, “Inhibitors of the JNK signal transduction pathway and methods of use” (University of Massachusetts, priority 1997, dated 2010)
